According to US20230364228A1:

Tests used:
[1] = molecular target: highest binding amyloid (in vitro); test: in vitro binding to amyloid, format not stated
[2] = molecular target: highest binding amyloid (in vitro); test: calculated from in vitro binding to amyloid, format not stated

B1: antibody having a heavy chain variable domain (VH) of SEQ ID NO:1 and a light chain variable domain (VL) of SEQ ID NO:2 (CAEL101) (antibody, IgG1, V domains shown)
VH: QVQLKESGPGLVAPSQSLSITCTVSGFSLSSYGVSWVRQPPGKGLEWLGVIWGDGSTNYHPNLMSRLSISKDISKSQVLFKLNSLQTDDTATYYCVTLDYWGQGTSVTVSS
VL: DVVMTQTPLSLPVSLGDQASISCRSSQSLVHRNGNTYLHWYLQKPGQSPKLLIYKVSNRFSGVPDRFSGSGSGTDFTLKISRVEAEDLGLYFCFQTTYVPNTFGGGTKLEIK
EC50 [1]: 157 mg/L
Michaelis-Menton (MM) EC 90 (calculated) [2]: 36.5 mg/L
